Test in all cases: ProtoArray, GST-treated control array
Common to all, as to settings: remark: other sources report otherwise

Test [1] concerns the target UBE2D2-Ubiquitin-conjugating enzyme E2 D2 (human), P62837.
Test [2] has as its target YPEL5-yippee-like 5 (Drosophila) (YPEL5) (human), P62699.
The target in test [3] is C12orf23-chromosome 12 open reading frame 23 (C12orf23) (human), Q8WUH6.

YPEL5-yippee-like 5 (Drosophila) (YPEL5) (human), P62699, sequence (P62699 whole entry): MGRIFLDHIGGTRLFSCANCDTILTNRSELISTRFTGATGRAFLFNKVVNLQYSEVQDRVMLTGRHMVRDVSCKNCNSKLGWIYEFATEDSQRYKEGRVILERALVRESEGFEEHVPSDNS
UBE2D2-Ubiquitin-conjugating enzyme E2 D2 (human), P62837, sequence (P62837 whole entry): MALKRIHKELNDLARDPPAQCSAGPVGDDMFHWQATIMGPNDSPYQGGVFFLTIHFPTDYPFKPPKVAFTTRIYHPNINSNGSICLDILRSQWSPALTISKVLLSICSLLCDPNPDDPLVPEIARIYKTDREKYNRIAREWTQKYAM

B1: 3× Flag-3×MBT (designed binder, not shown: a dimerising Fc or GST)
chain: EEWSSSQPATGEKKECWSWESYLEEQKAITAPVSLFQDSQAVTHNKNGFKLGMKLEGIDPQHPSMYFILTVAEVCGYRLRLHFDGYSECHDFWVNANSPDIHPAGWFEKTGHKLQPPKGYKEEEFSWSQYLRSTRAQAAPKHLFVSQSHSPPPLGFQVGMKLEAVDRMNPSLVCVASVTDVVDSRFLVHFDNWDDTYDYWCDPSSPYIHPVGWCQKQGKPLTPPQDYPDPDNFCWEKYLEETGASAVPTWAFKVRPPHSFLVNMKLEAVDRRNPALIRVASVEDVEDHRIKIHFDGWSHGYDFWIDADHPDIHPAGWCSKTGHPLQPPLGPREPSSASPGG
Turning to B1, the figures for the GST Average SNR in test [1], in test [2] and in test [3] were -0.383, -0.787 and 0.48, respectively.

These data come from patent US20140274782A1, “AFFINITY REAGENTS AND METHODS FOR DETECTION, PURIFICATION, AND PROTEOMIC ANALYSIS OF METHYLATED PROTEINS” (The Board of Trustees of the Leland Stanford Junior …, priority 2013, published 2014).
